The target of this assay is T1, human integrin avb5 (human, UniProt P06756).
T1 chain 1: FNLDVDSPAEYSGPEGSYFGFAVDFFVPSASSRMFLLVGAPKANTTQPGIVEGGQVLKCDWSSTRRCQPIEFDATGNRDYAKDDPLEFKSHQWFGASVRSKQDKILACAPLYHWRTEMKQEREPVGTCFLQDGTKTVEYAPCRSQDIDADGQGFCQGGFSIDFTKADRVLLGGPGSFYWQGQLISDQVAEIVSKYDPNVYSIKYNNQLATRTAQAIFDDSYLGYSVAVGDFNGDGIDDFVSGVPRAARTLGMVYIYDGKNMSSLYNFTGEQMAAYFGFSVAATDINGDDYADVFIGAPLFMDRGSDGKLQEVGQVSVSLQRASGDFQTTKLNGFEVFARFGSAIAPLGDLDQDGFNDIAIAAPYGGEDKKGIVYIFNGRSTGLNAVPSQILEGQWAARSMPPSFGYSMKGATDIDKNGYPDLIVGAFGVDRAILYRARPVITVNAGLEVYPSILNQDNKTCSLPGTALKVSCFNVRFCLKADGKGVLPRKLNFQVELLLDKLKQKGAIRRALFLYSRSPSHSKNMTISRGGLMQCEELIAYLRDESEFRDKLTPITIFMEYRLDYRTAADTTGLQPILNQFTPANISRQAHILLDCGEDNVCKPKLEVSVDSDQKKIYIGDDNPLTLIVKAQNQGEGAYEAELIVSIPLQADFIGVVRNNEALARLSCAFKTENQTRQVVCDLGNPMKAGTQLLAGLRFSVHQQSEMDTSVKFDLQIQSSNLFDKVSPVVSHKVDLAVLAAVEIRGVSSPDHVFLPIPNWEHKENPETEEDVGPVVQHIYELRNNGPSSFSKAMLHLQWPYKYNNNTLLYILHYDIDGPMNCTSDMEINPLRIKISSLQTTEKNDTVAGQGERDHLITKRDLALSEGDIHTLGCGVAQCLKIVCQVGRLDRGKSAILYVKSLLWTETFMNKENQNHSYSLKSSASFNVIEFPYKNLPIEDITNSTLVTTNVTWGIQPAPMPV
T1 chain 2: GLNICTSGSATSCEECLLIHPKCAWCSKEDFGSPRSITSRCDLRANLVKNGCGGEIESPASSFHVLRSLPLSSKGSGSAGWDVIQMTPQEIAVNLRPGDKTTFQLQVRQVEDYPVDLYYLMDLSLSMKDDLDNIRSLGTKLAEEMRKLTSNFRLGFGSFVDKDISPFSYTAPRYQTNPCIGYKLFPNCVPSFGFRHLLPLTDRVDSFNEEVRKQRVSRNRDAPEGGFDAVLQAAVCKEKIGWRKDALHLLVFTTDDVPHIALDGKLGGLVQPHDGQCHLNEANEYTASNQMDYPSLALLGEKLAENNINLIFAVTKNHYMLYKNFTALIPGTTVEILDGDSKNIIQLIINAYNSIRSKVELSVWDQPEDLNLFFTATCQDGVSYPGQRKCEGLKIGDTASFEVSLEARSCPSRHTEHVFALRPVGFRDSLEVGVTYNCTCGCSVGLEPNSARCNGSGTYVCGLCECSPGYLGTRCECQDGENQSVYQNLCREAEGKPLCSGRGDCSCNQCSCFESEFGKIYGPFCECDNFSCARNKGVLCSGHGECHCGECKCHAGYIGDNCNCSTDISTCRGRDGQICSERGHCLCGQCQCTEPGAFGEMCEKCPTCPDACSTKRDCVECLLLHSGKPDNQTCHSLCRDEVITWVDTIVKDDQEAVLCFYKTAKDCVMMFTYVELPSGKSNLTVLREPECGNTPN
Description: FACS HEK cells.

B1: ADWA11 2.4 IgG (antibody)
chain 1: EVQLVESGGGLVQPGGSLRLSCAASGFNIKDYYMNWVRQAPGKGLEWVGWIDPDQGNTIYEPKFQGRFTISADTSKNSAYLQMNSLRAEDTAVYYCARRLLMDYWGQGTLVTVSSASTKGPSVFPLAPSSKSTSGGTAALGCLVKDYFPEPVTVSWNSGALTSGVHTFPAVLQSSGLYSLSSVVTVPSSSLGTQTYICNVNHKPSNTKVDKKVEPKSCDKTHTCPPCPAPEAAGAPSVFLFPPKPKDTLMISRTPEVTCVVVDVSHEDPEVKFNWYVDGVEVHNAKTKPREEQYNSTYRVVSVLTVLHQDWLNGKEYKCKVSNKALPAPIEKTISKAKGQPREPQVYTLPPSREEMTKNQVSLTCLVKGFYPSDIAVEWESNGQPENNYKTTPPVLDSDGSFFLYSKLTVDKSRWQQGNVFSCSVMHEALHNHYTQKSLSLSPGK
chain 2: DIQMTQSPSSLSASVGDRVTITCRSTKSLSHFNGNTYLFWYQQKPGKAPKRLIYYMSSLASGVPSRFSGSGSGTDFTLTISSLQPEDFATYYCQQSLEYPFTFGGGTKVEIKRTVAAPSVFIFPPSDEQLKSGTASVVCLLNNFYPREAKVQWKVDNALQSGNSQESVTEQDSKDSTYSLSSTLTLSKADYEKHKVYACEVTHQGLSSPVTKSFNRGEC
As for B1, the binding result is “no binding”.
